± gives the uncertainty stated by the source.
B1: Proto-oncogene vav, residues 782 to 842; numbered along this chain, P15498 (parent)
chain: KYFGTAKARYDFCARDRSELSLKEGDIIKILNKKGQQGWWRGEIYGRVGWFPANYVEEDYS

Variants of: B1
Assay: abundance fitness (aPCA) (normalised: wild type 0, dead -1); higher = more abundant; growth selection in yeast, the domain comes from the species named
Settings: Homo sapiens

Q: For KYFGTAKARYDFCARDRSELSLKEGDIIKILNKKGQQGWWRGEIYGRVGWPPANYVEEDYS [F51P], which abundance fitness is on record?
A: -0.733 ± 0.19

Q: With KYFGTAKARYDFCARDRSELSLKEGDIIKILNKKGQQGWWRGEIYGRVGWRPANYVEEDYS [F51R] as the variant, how does the abundance fitness read?
A: -0.78 ± 0.12

Q: For KYFGTAKARYDFCARDRSELSLKEGDIIKILNKKGQQGWWRGEIYGRVGWMPANYVEEDYS [F51M], which abundance fitness is on record?
A: -0.905 ± 0.15

Q: Which abundance fitness does the source give for KYFGTAKARYDFCARDRSELSLKEGDIIKILNKKGQQGWWRGEIYGRVGWGPANYVEEDYS [F51G] here?
A: -0.838 ± 0.1

Q: Which abundance fitness does the source give for KYFGTAKARYDFCARDRSELSLKEGDIIKILNKKGQQGWWRGEIYGRVGWNPANYVEEDYS [F51N] here?
A: -0.489 ± 0.33

Q: With KYFGTAKARYDFCARDRSELSLKEGDIIKILNKKGQQGWWRGEIYGRVGWWPANYVEEDYS [F51W] as the variant, how does the abundance fitness read?
A: -0.988 ± 0.2

Q: With KYFGTAKARYDFCARDRSELSLKEGDIIKILNKKGQQGWWRGEIYGRVGWLPANYVEEDYS [F51L] as the variant, how does the abundance fitness read?
A: -0.813 ± 0.088

Q: For KYFGTAKARYDFCARDRSELSLKEGDIIKILNKKGQQGWWRGEIYGRVGWVPANYVEEDYS [F51V], which abundance fitness is on record?
A: -0.684 ± 0.1

Q: Which abundance fitness does the source give for KYFGTAKARYDFCARDRSELSLKEGDIIKILNKKGQQGWWRGEIYGRVGWEPANYVEEDYS [F51E] here?
A: -0.913 ± 0.25

Q: With KYFGTAKARYDFCARDRSELSLKEGDIIKILNKKGQQGWWRGEIYGRVGWCPANYVEEDYS [F51C] as the variant, how does the abundance fitness read?
A: -0.859 ± 0.18

Q: With KYFGTAKARYDFCARDRSELSLKEGDIIKILNKKGQQGWWRGEIYGRVGWQPANYVEEDYS [F51Q] as the variant, how does the abundance fitness read?
A: -0.759 ± 0.19

Q: With KYFGTAKARYDFCARDRSELSLKEGDIIKILNKKGQQGWWRGEIYGRVGWDPANYVEEDYS [F51D] as the variant, how does the abundance fitness read?
A: -0.951 ± 0.3

Q: For KYFGTAKARYDFCARDRSELSLKEGDIIKILNKKGQQGWWRGEIYGRVGWAPANYVEEDYS [F51A], which abundance fitness is on record?
A: -0.984 ± 0.27

Q: Which abundance fitness does the source give for KYFGTAKARYDFCARDRSELSLKEGDIIKILNKKGQQGWWRGEIYGRVGWTPANYVEEDYS [F51T] here?
A: -0.799 ± 0.15

Q: Which abundance fitness does the source give for KYFGTAKARYDFCARDRSELSLKEGDIIKILNKKGQQGWWRGEIYGRVGWSPANYVEEDYS [F51S] here?
A: -0.857 ± 0.15

Q: With KYFGTAKARYDFCARDRSELSLKEGDIIKILNKKGQQGWWRGEIYGRVGWIPANYVEEDYS [F51I] as the variant, how does the abundance fitness read?
A: -0.691 ± 0.25

Q: With KYFGTAKARYDFCARDRSELSLKEGDIIKILNKKGQQGWWRGEIYGRVGWFPHNYVEEDYS [A53H] as the variant, how does the abundance fitness read?
A: -0.011 ± 0.18

Q: Which abundance fitness does the source give for KYFGTAKARYDFCARDRSELSLKEGDIIKILNKKGQQGWWRGEIYGRVGWFPKNYVEEDYS [A53K] here?
A: -0.243 ± 0.1

Q: Which abundance fitness does the source give for KYFGTAKARYDFCARDRSELSLKEGDIIKILNKKGQQGWWRGEIYGRVGWFPFNYVEEDYS [A53F] here?
A: -0.472 ± 0.13

Q: With KYFGTAKARYDFCARDRSELSLKEGDIIKILNKKGQQGWWRGEIYGRVGWFPINYVEEDYS [A53I] as the variant, how does the abundance fitness read?
A: -0.314 ± 0.15

Q: For KYFGTAKARYDFCARDRSELSLKEGDIIKILNKKGQQGWWRGEIYGRVGWFPNNYVEEDYS [A53N], which abundance fitness is on record?
A: -0.444 ± 0.14

Q: With KYFGTAKARYDFCARDRSELSLKEGDIIKILNKKGQQGWWRGEIYGRVGWFPMNYVEEDYS [A53M] as the variant, how does the abundance fitness read?
A: -0.178 ± 0.11

Q: Which abundance fitness does the source give for KYFGTAKARYDFCARDRSELSLKEGDIIKILNKKGQQGWWRGEIYGRVGWFPLNYVEEDYS [A53L] here?
A: -0.505 ± 0.064

Q: Which abundance fitness does the source give for KYFGTAKARYDFCARDRSELSLKEGDIIKILNKKGQQGWWRGEIYGRVGWFPPNYVEEDYS [A53P] here?
A: -0.226 ± 0.096

Q: With KYFGTAKARYDFCARDRSELSLKEGDIIKILNKKGQQGWWRGEIYGRVGWFPENYVEEDYS [A53E] as the variant, how does the abundance fitness read?
A: -0.208 ± 0.099

Q: With KYFGTAKARYDFCARDRSELSLKEGDIIKILNKKGQQGWWRGEIYGRVGWFPCNYVEEDYS [A53C] as the variant, how does the abundance fitness read?
A: -0.078 ± 0.1

Q: Which abundance fitness does the source give for KYFGTAKARYDFCARDRSELSLKEGDIIKILNKKGQQGWWRGEIYGRVGWFPDNYVEEDYS [A53D] here?
A: -0.641 ± 0.16

Q: With KYFGTAKARYDFCARDRSELSLKEGDIIKILNKKGQQGWWRGEIYGRVGWFPGNYVEEDYS [A53G] as the variant, how does the abundance fitness read?
A: -0.4 ± 0.056

Q: For KYFGTAKARYDFCARDRSELSLKEGDIIKILNKKGQQGWWRGEIYGRVGWFPQNYVEEDYS [A53Q], which abundance fitness is on record?
A: -0.243 ± 0.13

Q: With KYFGTAKARYDFCARDRSELSLKEGDIIKILNKKGQQGWWRGEIYGRVGWFWANYVEEDYS [P52W] as the variant, how does the abundance fitness read?
A: -0.943 ± 0.18

Q: With KYFGTAKARYDFCARDRSELSLKEGDIIKILNKKGQQGWWRGEIYGRVGWFVANYVEEDYS [P52V] as the variant, how does the abundance fitness read?
A: -0.787 ± 0.15

Q: With KYFGTAKARYDFCARDRSELSLKEGDIIKILNKKGQQGWWRGEIYGRVGWFNANYVEEDYS [P52N] as the variant, how does the abundance fitness read?
A: -0.761 ± 0.29

Q: Which abundance fitness does the source give for KYFGTAKARYDFCARDRSELSLKEGDIIKILNKKGQQGWWRGEIYGRVGWFMANYVEEDYS [P52M] here?
A: -0.38 ± 0.19

Q: For KYFGTAKARYDFCARDRSELSLKEGDIIKILNKKGQQGWWRGEIYGRVGWFDANYVEEDYS [P52D], which abundance fitness is on record?
A: -0.929 ± 0.36

Q: Which abundance fitness does the source give for KYFGTAKARYDFCARDRSELSLKEGDIIKILNKKGQQGWWRGEIYGRVGWFRANYVEEDYS [P52R] here?
A: -0.89 ± 0.099

Q: Which abundance fitness does the source give for KYFGTAKARYDFCARDRSELSLKEGDIIKILNKKGQQGWWRGEIYGRVGWFFANYVEEDYS [P52F] here?
A: -0.957 ± 0.43

Q: With KYFGTAKARYDFCARDRSELSLKEGDIIKILNKKGQQGWWRGEIYGRVGWFTANYVEEDYS [P52T] as the variant, how does the abundance fitness read?
A: -0.778 ± 0.17

Q: With KYFGTAKARYDFCARDRSELSLKEGDIIKILNKKGQQGWWRGEIYGRVGWFAANYVEEDYS [P52A] as the variant, how does the abundance fitness read?
A: -0.909 ± 0.22

Q: Which abundance fitness does the source give for KYFGTAKARYDFCARDRSELSLKEGDIIKILNKKGQQGWWRGEIYGRVGWFYANYVEEDYS [P52Y] here?
A: -1.01 ± 0.34

Q: With KYFGTAKARYDFCARDRSELSLKEGDIIKILNKKGQQGWWRGEIYGRVGWFLANYVEEDYS [P52L] as the variant, how does the abundance fitness read?
A: -0.89 ± 0.12

Q: With KYFGTAKARYDFCARDRSELSLKEGDIIKILNKKGQQGWWRGEIYGRVGWFQANYVEEDYS [P52Q] as the variant, how does the abundance fitness read?
A: -0.528 ± 0.13

Q: Which abundance fitness does the source give for KYFGTAKARYDFCARDRSELSLKEGDIIKILNKKGQQGWWRGEIYGRVGWFKANYVEEDYS [P52K] here?
A: -0.498 ± 0.21

Q: Which abundance fitness does the source give for KYFGTAKARYDFCARDRSELSLKEGDIIKILNKKGQQGWWRGEIYGRVGWFSANYVEEDYS [P52S] here?
A: -0.95 ± 0.15

Q: Which abundance fitness does the source give for KYFGTAKARYDFCARDRSELSLKEGDIIKILNKKGQQGWWRGEIYGRVGWFCANYVEEDYS [P52C] here?
A: -1.02 ± 0.34

Source: the Human Domainome abundance scans (Beltran et al. 2025)
